According to the supplement of paper PMC5998384:

Legend:
HeLa Kyoto [1] = assay: solubility in G1/S (NP-40 vs SDS abundance) (log2 ratio); higher = more soluble; details: cell cycle stage: G1/S
HeLa Kyoto [2] = assay: melting temperature (median over replicates), in situ; higher = more thermally stable
HeLa Kyoto [3] = assay: solubility change mitosis vs G1/S (difference of NP-40 vs SDS log2 ratios) (log2 ratio difference); higher = more soluble in mitosis
HeLa Kyoto [4] = assay: thermal stability score vs G1/S (z-score of summed log2 fold changes over temperatures); higher = more thermally stable than in G1/S
[5] = cell cycle stage: early G1 (4.5 h after nocodazole release)
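Wherever melting temperature (median over replicates), in situ is given: HeLa Kyoto cells synchronized by double thymidine or nocodazole block, proteins quantified by TMT10plex mass spectrometry, three independent biological replicates.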
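Wherever solubility change mitosis vs G1/S (difference of NP-40 vs SDS log2 ratios) is given: synchronized HeLa Kyoto cells (double thymidine block for G1/S, nocodazole release for mitosis), protein amounts in NP-40 versus SDS lysates quantified by mass spectrometry, three biological replicates.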
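Wherever solubility in G1/S (NP-40 vs SDS abundance) is given: HeLa Kyoto cells arrested at G1/S by double thymidine block, proteins quantified by TMT10plex mass spectrometry in mild NP-40 versus SDS extracts, three biological replicates.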
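Wherever thermal stability score vs G1/S (z-score of summed log2 fold changes over temperatures) is given: synchronized HeLa Kyoto cells, proteins quantified by TMT10plex mass spectrometry, three biological replicates, mitosis taken 0.5 h after nocodazole release, G1/S directly after double thymidine block.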

| Sequence | solubility in G1/S (log2) (HeLa Kyoto [1]) | melting temperature (HeLa Kyoto [2]; cell cycle stage: G1/S) | melting temperature (HeLa Kyoto [2]; cell cycle stage: mitosis) | solubility change mitosis (log2) (HeLa Kyoto [3]) | thermal stability score (HeLa Kyoto [4]; [5]) | thermal stability score (HeLa Kyoto [4]; cell cycle stage: mitosis) |
| --- | --- | --- | --- | --- | --- | --- |
| MNKLRQSFRRKKDVYVPEASRPHQWQTDEEGVRTGKCSFPVKYLGHVEVDESRGMHICEDAVKRLKAERKFFKGFFGKTGKKAVKAVLWVSADGLRVVDEKTKDLIVDQTIEKVSFCAPDRNFDRAFSYICRDGTTRRWICHCFMAVKDTGERLSHAVGCAFAACLERKQKREKECGVTATFDASRTTFTREGSFRVTTATEQAEREEIMKQMQDAKKAETDKIVVGSSVAPGNTAPSPSSPTSPTSDATTSLEMNNPHAIPRRHAPIEQLARQGSFRGFPALSQKMSPFKRQLSLRINELPSTMQRKTDFPIKNAVPEVEGEAESISSLCSQITNAFSTPEDPFSSAPMTKPVTVVAPQSPTFQANGTDSAFHVLAKPAHTALAPVAMPVRETNPWAHAPDAANKEIAATCSGTEWGQSSGAASPGLFQAGHRRTPSEADRWLEEVSKSVRAQQPQASAAPLQPVLQPPPPTAISQPASPFQGNAFLTSQPVPVGVVPALQPAFVPAQSYPVANGMPYPAPNVPVVGITPSQMVANVFGTAGHPQAAHPHQSPSLVRQQTFPHYEASSATTSPFFKPPAQHLNGSAAFNGVDDGRLASADRHTEVPTGTCPVDPFEAQWAALENKSKQRTNPSPTNPFSSDLQKTFEIEL [NUMB] | -0.0586 | 51.9 °C | 51.4 °C | -0.132 | 0.0697 | 0.793 |
| MNLFNLDRFRFEKRNKIEEAPEATPQPSQPGPSSPISLSAEEENAEGEVSRANTPDSDITEKTEDSSVPETPDNERKASISYFKNQRGIQYIDLSSDSEDVVSPNCSNTVQEKTFNKDTVIIVSEPSEDEESQGLPTMARRNDDISELEDLSELEDLKDAKLQTLKELFPQRSDNDLLKLIESTSTMDGAIAAALLMFGDAGGGPRKRKLSSSSEPYEEDEFNDDQSIKKTRLDHGEESNESAESSSNWEKQESIVLKLQKEFPNFDKQELREVLKEHEWMYTEALESLKVFAEDQDMQYVSQSEVPNGKEVSSRSQNYPKNATKTKLKQKFSMKAQNGFNKKRKKNVFNPKRVVEDSEYDSGSDVGSSLDEDYSSGEEVMEDGYKGKILHFLQDASIGELTLIPQCSQKKAQKITELRPFNSWEALFTKMSKTNGLSEDLIWHCKTLIQERDVVIRLMNKCEDISNKLTKQVTMLTGNGGGWNIEQPSILNQSLSLKPYQKVGLNWLALVHKHGLNGILADEMGLGKTIQAIAFLAYLYQEGNNGPHLIVVPASTIDNWLREVNLWCPTLKVLCYYGSQEERKQIRFNIHSRYEDYNVIVTTYNCAISSSDDRSLFRRLKLNYAIFDEGHMLKNMGSIRYQHLMTINANNRLLLTGTPVQNNLLELMSLLNFVMPHMFSSSTSEIRRMFSSKTKSADEQSIYEKERIAHAKQIIKPFILRRVKEEVLKQLPPKKDRIELCAMSEKQEQLYLGLFNRLKKSINNLEKNTEMCNVMMQLRKMANHPLLHRQYYTAEKLKEMSQLMLKEPTHCEANPDLIFEDMEVMTDFELHVLCKQYRHINNFQLDMDLILDSGKFRVLGCILSELKQKGDRVVLFSQFTMMLDILEVLLKHHQHRYLRLDGKTQISERIHLIDEFNTDMDIFVFLLSTKAGGLGINLTSANVVILHDIDCNPYNDKQAEDRCHRVGQTKEVLVIKLISQGTIEESMLKINQQKLKLEQDMTTVDEGDEGSMPADIATLLKTSMGL [SMARCAD1] | -0.1 | 48.4 °C | 49.7 °C | -0.124 | 2.18 | 3.89 |
| MNLLPKSSREFGSVDYWEKFFQQRGKKAFEWYGTYLELCGVLHKYIKPREKVLVIGCGNSELSEQLYDVGYRDIVNIDISEVVIKQMKECNATRRPQMSFLKMDMTQMEFPDASFQVVLDKGTLDAVLTDEEEKTLQQVDRMLAEVGRVLQVGGRYLCISLAQAHILKKAVGHFSREGWMVRVHQVANSQDQVLEAEPQFSLPVFAFIMTKFRPVPGSALQIFELCAQEQRKPVRLESAERLAEAVQERQQYAWLCSQLRRKARLGSVSLDLCDGDTGEPRYTLHVVDSPTVKPSRDNHFAIFIIPQGRETEWLFGMDEGRKQLAASAGFRRLITVALHRGQQYESMDHIQAELSARVMELAPAGMPTQQQVPFLSVGGDIGVRTVQHQDCSPLSGDYVIEDVQGDDKRYFRRLIFLSNRNVVQSEARLLKDVSHKAQKKRKKDRKKQRPADAEDLPAAPGQSIDKSYLCCEHHKAMIAGLALLRNPELLLEIPLALLVVGLGGGSLPLFVHDHFPKSCIDAVEIDPSMLEVATQWFGFSQSDRMKVHIADGLDYIASLAGGGEARPCYDVIMFDVDSKDPTLGMSCPPPAFVEQSFLQKVKSILTPEGVFILNLVCRDLGLKDSVLAGLKAVFPLLYVRRIEGEVNEILFCQLHPEQKLATPELLETAQALERTLRKPGRGWDDTYVLSDMLKTVKIV [METTL13] | -0.167 | 49.3 °C | 48.9 °C | -0.0232 | 0.527 | 1.18 |
| MNMTQARVLVAAVVGLVAVLLYASIHKIEEGHLAVYYRGGALLTSPSGPGYHIMLPFITTFRSVQTTLQTDEVKNVPCGTSGGVMIYIDRIEVVNMLAPYAVFDIVRNYTADYDKTLIFNKIHHELNQFCSAHTLQEVYIELFDQIDENLKQALQKDLNLMAPGLTIQAVRVTKPKIPEAIRRNFELMEAEKTKLLIAAQKQKVVEKEAETERKKAVIEAEKIAQVAKIRFQQKVMEKETEKRISEIEDAAFLAREKAKADAEYYAAHKYATSNKHKLTPEYLELKKYQAIASNSKIYFGSNIPNMFVDSSCALKYSDIRTGRESSLPSKEALEPSGENVIQNKESTG [ERLIN1] | 0.24 | 52.7 °C | 53.1 °C | -0.0762 | 1.82 | 4.38 |
| MNNHVSSKPSTMKLKHTINPILLYFIHFLISLYTILTYIPFYFFSESRQEKSNRIKAKPVNSKPDSAYRSVNSLDGLASVLYPGCDTLDKVFTYAKNKFKNKRLLGTREVLNEEDEVQPNGKIFKKVILGQYNWLSYEDVFVRAFNFGNGLQMLGQKPKTNIAIFCETRAEWMIAAQACFMYNFQLVTLYATLGGPAIVHALNETEVTNIITSKELLQTKLKDIVSLVPRLRHIITVDGKPPTWSEFPKGIIVHTMAAVEALGAKASMENQPHSKPLPSDIAVIMYTSGSTGLPKGVMISHSNIIAGITGMAERIPELGEEDVYIGYLPLAHVLELSAELVCLSHGCRIGYSSPQTLADQSSKIKKGSKGDTSMLKPTLMAAVPEIMDRIYKNVMNKVSEMSSFQRNLFILAYNYKMEQISKGRNTPLCDSFVFRKVRSLLGGNIRLLLCGGAPLSATTQRFMNICFCCPVGQGYGLTESAGAGTISEVWDYNTGRVGAPLVCCEIKLKNWEEGGYFNTDKPHPRGEILIGGQSVTMGYYKNEAKTKADFFEDENGQRWLCTGDIGEFEPDGCLKIIDRKKDLVKLQAGEYVSLGKVEAALKNLPLVDNICAYANSYHSYVIGFVVPNQKELTELARKKGLKGTWEELCNSCEMENEVLKVLSEAAISASLEKFEIPVKIRLSPEPWTPETGLVTDAFKLKRKELKTHYQADIERMYGRK [ACSL3] | -0.101 | 50.7 °C | 51.2 °C | -0.129 | 1.86 | 3.88 |
| MNNLSFSELCCLFCCPPCPGKIASKLAFLPPDPTYTLMCDESGSRWTLHLSERADWQYSSREKDAIECFMTRTSKGNRIACMFVRCSPNAKYTLLFSHGNAVDLGQMSSFYIGLGSRINCNIFSYDYSGYGASSGKPTEKNLYADIEAAWLALRTRYGIRPENVIIYGQSIGTVPSVDLAARYESAAVILHSPLTSGMRVAFPDTKKTYCFDAFPNIDKISKITSPVLIIHGTEDEVIDFSHGLALFERCQRPVEPLWVEGAGHNDVELYGQYLERLKQFVSQELVNL [ABHD17B] | 0.0257 | 54.9 °C | 54.3 °C | -0.163 | -2.83 | -2.95 |
| MNPDLRRERDSASFNPELLTHILDGSPEKTRRRREIENMILNDPDFQHEDLNFLTRSQRYEVAVRKSAIMVKKMREFGIADPDEIMWFKKLHLVNFVEPVGLNYSMFIPTLLNQGTTAQKEKWLLSSKGLQIIGTYAQTEMGHGTHLRGLETTATYDPETQEFILNSPTVTSIKWWPGGLGKTSNHAIVLAQLITKGKCYGLHAFIVPIREIGTHKPLPGITVGDIGPKFGYDEIDNGYLKMDNHRIPRENMLMKYAQVKPDGTYVKPLSNKLTYGTMVFVRSFLVGEAARALSKACTIAIRYSAVRHQSEIKPGEPEPQILDFQTQQYKLFPLLATAYAFQFVGAYMKETYHRINEGIGQGDLSELPELHALTAGLKAFTSWTANTGIEACRMACGGHGYSHCSGLPNIYVNFTPSCTFEGENTVMMLQTARFLMKSYDQVHSGKLVCGMVSYLNDLPSQRIQPQQVAVWPTMVDINSPESLTEAYKLRAARLVEIAAKNLQKEVIHRKSKEVAWNLTSVDLVRASEAHCHYVVVKLFSEKLLKIQDKAIQAVLRSLCLLYSLYGISQNAGDFLQGSIMTEPQITQVNQRVKELLTLIRSDAVALVDAFDFQDVTLGSVLGRYDGNVYENLFEWAKNSPLNKAEVHESYKHLKSLQSKL [ACOX1] | 0.331 | 55.9 °C | 58.3 °C | -0.212 | -1.6 | -3.2 |
| MNPESSIFIEDYLKYFQDQVSRENLLQLLTDDEAWNGFVAAAELPRDEADELRKALNKLASHMVMKDKNRHDKDQQHRQWFLKEFPRLKRELEDHIRKLRALAEEVEQVHRGTTIANVVSNSVGTTSGILTLLGLGLAPFTEGISFVLLDTGMGLGAAAAVAGITCSVVELVNKLRARAQARNLDQSGTNVAKVMKEFVGGNTPNVLTLVDNWYQVTQGIGRNIRAIRRARANPQLGAYAPPPHVIGRISAEGGEQVERVVEGPAQAMSRGTMIVGAATGGILLLLDVVSLAYESKHLLEGAKSESAEELKKRAQELEGKLNFLTKIHEMLQPGQDQ [APOL2] | 0.309 | 50 °C | 50.8 °C | 0.0238 | 4.12 | 3.26 |
| MNRGFSRKSHTFLPKIFFRKMSSSGAKDKPELQFPFLQDEDTVATLLECKTLFILRGLPGSGKSTLARVIVDKYRDGTKMVSADAYKITPGARGAFSEEYKRLDEDLAAYCRRRDIRILVLDDTNHERERLEQLFEMADQYQYQVVLVEPKTAWRLDCAQLKEKNQWQLSADDLKKLKPGLEKDFLPLYFGWFLTKKSSETLRKAGQVFLEELGNHKAFKKELRQFVPGDEPREKMDLVTYFGKRPPGVLHCTTKFCDYGKAPGAEEYAQQDVLKKSYSKAFTLTISALFVTPKTTGARVELSEQQLQLWPSDVDKLSPTDNLPRGSRAHITLGCAADVEAVQTGLDLLEILRQEKGGSRGEEVGELSRGKLYSLGNGRWMLTLAKNMEVRAIFTGYYGKGKPVPTQGSRKGGALQSCTII [CNP] | 0.107 | 50.6 °C | 50.3 °C | -0.00285 | 1.08 | 0.579 |
